Test results published in the supplement of paper PMC10567573.
± gives the standard deviation.

Assay: protein stability index of a GFP-peptide fusion (GPS, HEK-293T) (PSI 1-6); higher = more stable
Details: c terminus: a fixed tail appended
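Further: 24-mer peptide tiles fused after GFP, lentivirally expressed, FACS-sorted into six equal bins by GFP/DsRed ratio, decoded by Illumina sequencing, PSI is the read-weighted mean bin number.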

| Sequence | protein stability index (treatment: DMSO) | protein stability index (treatment: MLN4924 1 uM, 8 h) |
| --- | --- | --- |
| ELQGDFSVPDVPKSMAWCENSICV [VPS39] | 2.67 ± 0.22 | 2.67 ± 0.18 |
| LELLLDASALTLVLGGRRLRRAWF [SCNN1D] | 2.94 ± 0.81 | 2.4 ± 0.58 |
| VRSKYNDDIRKGIVLLEELLPKGS [FIS1] | 2.87 ± 0.04 | 2.84 ± 0.14 |
| THLLKQGRSSMGTGLSGGKRPSQE [CRY1] | 4.35 ± 0.18 | 4.53 ± 0.33 |
| SPSPSSRVTVSRASSSRSVRTTRG [LMNB1] | 5.08 ± 0.27 | 5.12 ± 0.09 |
| TRKHHCRRCGKCFCDRCCSQKVPL [ZFYVE21] | 3.31 ± 0.27 | 3.58 ± 0.19 |
| GAYKSSTICYCPEKGTWTELEGDV [KLHL14] | 4.22 ± 0.32 | 4.38 ± 0.32 |
| PGPPSAPPPPPKEGHQEGLVELPA [SCNN1D] | 5.46 ± 0.23 | 5.47 ± 0.17 |
| TSLRLVFLLAFGLMIIVCIDQWKN [RETREG3] | 2.21 ± 0.3 | 2.03 ± 0.17 |
| VTFAAMQAQQGRSSLVWLFSQLYL [MCOLN1] | 3.03 ± 0.67 | 2.75 ± 0.47 |
| HITKTVKGGISETRIEKRIVITGD [EPB41L3] | 3.85 ± 0.28 | 3.96 ± 0.12 |
| SCYQVYCGRYINGHMLQHHGNSGH [HDAC6] | 2.49 ± 0.54 | 2.21 ± 0.16 |
| SASASTTTTVTAVTAEVDLFGDAF [SNAP91] | 4.28 ± 0.28 | 4.28 ± 0.29 |
| HFLSKMPEAEENKQIIRKHAQTFV [CCND1] | 3.39 ± 0.21 | 3.43 ± 0.29 |
| DRHTKFFEEPEDPSNRSFFSEIIS [PPP2R2B] | 3.38 ± 0.1 | 3.48 ± 0.23 |
| HVTCVDQSEHTMVLRCQLSAEEVR [C2CD2L] | 3.73 ± 0.19 | 3.82 ± 0.18 |
| ALLFIPRRAPFDLFENKKKKNNIK [HSP90AB1] | 2.19 ± 0.27 |  |
| APSIEQRLQEVRESIRRAQVSQVK [FCHSD1] | 4.27 ± 0.39 | 4.35 ± 0.34 |
| FGSLPSPKELSSFSFSMKGHEKTA [DLC1] | 3.53 ± 0.19 | 3.74 ± 0.25 |
| AGGQDMADSMLMQGSRGLTDQAIF [HDAC6] | 3.73 ± 0.054 | 3.86 ± 0.38 |
| ASSWKKQVSHDFLETRFKIQQLLE [FBXO34] | 2.89 ± 0.31 | 2.71 ± 0.41 |
| ITLLILAELLIFSVPIVYEKYKTQ [RTN3] | 3.41 ± 0.32 | 3.4 ± 0.94 |
| NHRLISEILSESVVPDVRSVVTTA [SMARCE1] | 3.31 ± 0.26 | 3.17 ± 0.56 |

| Sequence | protein stability index (treatment: DMSO) | protein stability index (treatment: MLN4924 1 uM, 8 h) |
| --- | --- | --- |
| GKVQDIKAREKDGKGRTASPINSP [FSD1] | 4.99 ± 0.37 | 5.25 ± 0.24 |
| RISNPSDDNSCEDLEEERREEEEK [PCMTD2] | 5.59 ± 0.099 | 5.704 ± 0.05 |
| EVEELDNWQPAVPLMHMLHLSGAL [SPATS1] | 2.18 ± 0.27 | 2.16 ± 0.35 |
| YNVIIGWSIFYFFKSFQYPLPWSE [SLC6A17] |  | 3.32 ± 0.67 |
| TSALFWEQHDLVYGDWTSGENSDG [CLPTM1] | 4.17 ± 0.18 | 4.34 ± 0.41 |
| KIVEFNPMVLKGKIRPDSSRPELL [GLT8D2] | 3.09 ± 0.36 | 3.35 ± 0.39 |
| EEVLCDSCIGNKQKAVKSCLVCQA [TRIM29] | 5.52 ± 0.17 | 5.22 ± 0.26 |
| AVNRARRPLARPIKPNEILPPEKG [RHOBTB2] | 4.24 ± 0.12 | 4.27 ± 0.12 |
| AQFHCAYQLADWCLHHICTNYNNV [RHOBTB2] | 3.34 ± 0.36 | 3.15 ± 0.89 |
| YFLELTQSFIIPLERYVASLMPLQ [DENND6A] | 2.56 ± 0.11 | 3.15 ± 0.33 |
| ASSPKGTIENILDNDPRDLIGDFS [CDC25A] | 4.91 ± 0.21 | 4.82 ± 0.14 |
| HRLGSPYGHCTAGGEGVEVELLHN [SCNN1D] | 3.9 ± 0.34 | 3.82 ± 0.37 |
| AYGHRQCLELVSCFVLFSLTHTHT [ANKRD44] | 2.52 ± 1 | 3.3 ± 0.47 |
| TLGSSFIPGEHFWLLLLTRGLVGV [SPNS1] | 3.15 ± 1.4 | 3.21 ± 0.84 |
| TVQEAATSRRARASKKTAQPWVEV [MFSD9] | 3.22 ± 0.14 | 3.1 ± 0.25 |
| YVEVKEGKTWKQICDKHWTAKNSR [LOXL2] | 2.62 ± 0.8 | 3.28 ± 0.61 |
| EKLNIPWNHIRLQRTAKGKPVLAK [AASDHPPT] | 3.16 ± 0.2 | 3.05 ± 0.33 |
| TEDVNTLDSEKRTPLHVAAFLGDA [ANKRD44] | 4.72 ± 0.3 | 4.74 ± 0.11 |
| SQEEAQGLPSSELDAVENQLKWAS [ZNF24] | 5.32 ± 0.2 | 5.08 ± 0.38 |
| HRRRNQLIKKKKEELEAKRLQCPF [FAM107A] | 3.95 ± 0.38 | 4.22 ± 0.16 |
| KYSFLQFDPAPRRGEPHVTRRTPD [PPP2CA] | 4.04 ± 0.27 | 3.85 ± 0.19 |
| LIKLGLERFHGVGILGFNSAEWFI [ACSBG2] | 1.91 ± 0.25 | 2.13 ± 0.65 |
| FHITNDEPIPFWTFLSRILTGLNY [NSDHL] | 2.45 ± 0.58 | 2.2 ± 0.15 |

| Sequence | protein stability index (treatment: DMSO) | protein stability index (treatment: MLN4924 1 uM, 8 h) |
| --- | --- | --- |
| ISWAFTDRPDLSLTVLPKLQARER [C2CD2L] | 2.68 ± 0.28 | 2.71 ± 0.43 |
| EDAEGEEEEEEEEEEEDDLSELPP [FKBP8] | 5.67 ± 0.19 | 5.56 ± 0.18 |
| VRSLRGEEPVPRERDRDPCGGSGG [LURAP1L] | 5.34 ± 0.24 | 5.35 ± 0.095 |
| PTVDLNQVLNETRSQYEALVETNR [KRT34] | 3.37 ± 0.55 | 3.79 ± 0.48 |
| RKRIRTYLKSCRRMKKNGMEMTRP [NOL4L] | 3.28 ± 0.21 | 3.32 ± 0.22 |
| VDGVWTAQRPGITHGVGLVLRVEQ [SCNN1D] | 2.21 ± 0.35 | 2.44 ± 0.24 |
| LHYFPFFLMGRVLYFHHYFPAMLF [POMT2] | 3.09 ± 0.93 | 2.58 ± 0.52 |
| GRRAALYVHWPYCEKRCSYCNFNK [RSAD1] | 2.23 ± 0.45 | 2.96 ± 0.55 |
| GLPPSGSWQDLKDHMREAGDVCYA [SRSF1] | 3.65 ± 0.25 | 3.83 ± 0.48 |
| VSTNTAMIQTSKTEITELRRTLQG [KRT13] | 4.08 ± 0.3 | 4.06 ± 0.22 |
| LPREEEIVFPEKLNGSVLPGSGAP [ADAMTS4] | 4.49 ± 0.45 | 4.63 ± 0.46 |
| EAYTEHRPEITSRAINLLFDIARI [ZER1] | 2.14 ± 0.18 | 2.01 ± 0.21 |
| GVPGQPLNFKAEPESETSILLSWT [PTPRD] | 2.83 ± 0.27 | 2.98 ± 0.49 |
| IKQLRSGGTPIRGALQIEQSEESD [PTPRD] | 4.98 ± 0.36 | 5.15 ± 0.21 |
| NRNHNEGMVTRCIIEVLSNALSKS [CHGB] | 2.25 ± 0.24 | 2.1 ± 0.27 |
| LQPPHESRPQPIYYGFSESAESQG [ADAMTSL2] | 4.18 ± 0.39 | 4.22 ± 0.56 |
| THGVGLVLRVEQQPHLPLLSTLAG [SCNN1D] | 2.12 ± 0.23 | 2.17 ± 0.15 |
| KLAEAYLNLGPALSAALASSQKQH [C8orf76] | 2.68 ± 0.69 | 2.82 ± 0.97 |
| VLTDSEGWILIDRCGKHFGTILNY [KCTD10] | 2.37 ± 0.59 | 2.31 ± 0.2 |
| CNSHMPYGYAAQARARERERLAHS [KCNA4] | 3.1 ± 0.23 | 3.13 ± 0.31 |
| LNKPALQAQPLRTTSTLASSLPGH [EHMT1] | 3.81 ± 0.14 | 3.91 ± 0.28 |
| HHSLQAHFRPRFHPLPTVIIVNLL [TMEM192] | 2.68 ± 0.28 | 2.35 ± 0.48 |
| AMKSVHENMDLNKIDDLMQEITEQ [CHMP4C] | 4.7 ± 0.16 | 4.85 ± 0.52 |

| Sequence | protein stability index (treatment: DMSO) | protein stability index (treatment: MLN4924 1 uM, 8 h) |
| --- | --- | --- |
| FTEYQASAFGNVKLVVHDCPVWDI [RHOBTB3] | 2.54 ± 0.72 | 2.46 ± 0.41 |
| QLNGTANDTAGPELPDPLGGLLDE [NFE2L1] | 5.11 ± 0.32 | 5.37 ± 0.32 |
| LAGGKLILSLEGGYNLRALAEGVS [HDAC6] | 2.99 ± 0.76 | 2.31 ± 0.47 |
| RSLFIDRTIVKGYNENVYTEDGKL [MED27] | 4.07 ± 0.25 | 4.12 ± 0.21 |
| FQREALENSHTNTEVLRNMGFAAK [CHMP4C] | 3.59 ± 0.21 | 4.08 ± 0.28 |
| PELTITSLFSPVTEDSPLGTVVAL [PCDHGA10] | 2.56 ± 0.26 | 2.72 ± 0.33 |
| RLLQASGGGLTGVSGSHFVGVDGV [PCDHGA10] | 2.78 ± 0.46 | 3.01 ± 0.28 |
| IGTQGPLENTYRDFWLMVWEQKVL [PTPN9] | 2.31 ± 0.24 | 1.79 ± 0.29 |
| FLKQGDSADETTAHKTEEENSDSD [CMTM3] | 5.63 ± 0.25 | 5.58 ± 0.43 |
| VLTEPILIETYTGLMSFIGNRNKL [TPRG1] | 2.21 ± 0.36 | 2.27 ± 0.51 |
| KPLYPDDYVHISSKPCDLHCTTVD [ADAMTSL2] | 4.29 ± 0.35 | 4.21 ± 0.36 |
| RHSISMPAMRNSPTFKSFEERVET [TPD52L1] | 4.66 ± 0.18 | 4.75 ± 0.42 |
| RDGEPEPMQKLQDLVNRTPWKKCC [RBBP5] | 4 ± 0.21 | 4.04 ± 0.21 |
| KSENARLVVQIDNAKLAADDFRTK [KRT33B] | 4.4 ± 0.41 | 4.25 ± 0.27 |
| KPVLAKDSSNPYPNFNFNISHQGD [AASDHPPT] | 4.22 ± 0.22 | 4.01 ± 0.18 |
| MLKRPVLLHLHQTAHADEFDCPSE [STEAP1] | 3.73 ± 0.29 | 3.73 ± 0.48 |
| LQAKQDGKKDVSHSSPVDLKIPQV [LCOR] | 4.94 ± 0.21 | 4.92 ± 0.06 |
| MCKEHEDEKINIYCLTCEVPTCSM [TRIM63] | 3.35 ± 0.26 | 3.27 ± 0.35 |
| GRGPPSEPVLTQTSEQAPSSAPRD [PTPRD] | 5.74 ± 0.22 | 5.34 ± 0.31 |
| ATNPHVKPPYSYATLICMAMQASK [FOXJ1] | 2.29 ± 0.32 | 2.36 ± 0.064 |
